These results are taken from publication PMC2855817 (Biochemistry, 2010).

Like-named read-outs stand apart in the source and are kept apart here.

For data set [1], the target named is L29P variant of Pseudomonas fluorescens (SIK WI) aryl esterase (PFE) (Pseudomonas fluorescens SIK WI). As to the kind of experiment: crystal structure.
Data set [2] concerns the target T1, PFE (Pseudomonas fluorescens esterase; aryl esterase) (Pseudomonas fluorescens, UniProt P22862, L30P).
T1 sequence (P22862 2-272 L30P): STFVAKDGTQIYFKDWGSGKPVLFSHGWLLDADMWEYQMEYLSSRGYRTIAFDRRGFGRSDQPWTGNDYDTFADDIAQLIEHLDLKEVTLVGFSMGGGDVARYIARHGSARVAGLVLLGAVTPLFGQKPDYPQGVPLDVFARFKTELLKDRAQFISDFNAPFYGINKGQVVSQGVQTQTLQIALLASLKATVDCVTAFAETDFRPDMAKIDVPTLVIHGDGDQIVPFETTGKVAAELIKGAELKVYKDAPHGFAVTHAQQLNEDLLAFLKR
The following applies: pH 5.5, 23 °C.

Data set [3] concerns the target T1, PFE (Pseudomonas fluorescens esterase; aryl esterase). The following applies: pH 5.5, 23 °C; estimated upper limit.
The next data set relates to O=C1CCCCCO1. Kind of data set: purified protein. It counts as biochemical, Pseudomonas fluorescens. The following applies: pH 7.2, BES, 23 °C.

In general, stoichiometry N refers to a count of units in the complex or per binding partner. For “L29P variant of Pseudomonas fluorescens (SIK WI) aryl esterase (PFE) (enzyme)”, the stoichiometry N in data set [1] was 6.

Usually Km stands for the substrate concentration at which the rate is half of its maximum. For `CC(=O)OO` [peracetic acid], the Km in data set [2] is 41 ± 5 µM; in data set [3], less than 3 µM.

In general, kcat refers to the maximal rate divided by the concentration of active sites. The term kcat/Km denotes the second-order rate constant that governs catalysis at low substrate concentration. Consider “PFE (Pseudomonas fluorescens esterase; aryl esterase) (Pseudomonas fluorescens; L30P)”, for which, in the data set on O=C1CCCCCO1, the Km came to 39000 ± 1000 µM, the kcat is 11 ± 1 s⁻¹ and the kcat/Km turned out to be 280 M⁻¹ s⁻¹.
